Measured values taken from the supplement of paper PMC9170038.

Test system: MS2 coat protein
Test: apparent KD of MS2 coat protein; higher = weaker reporter binding
Details: Eterna round: R107
Experimental: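 RNA-MaP round R107: designed RNA switches with theophylline, tryptophan, arginine or FMN aptamers are transcribed on-chip within common flanks. They are titrated with SNAP-549-labelled MS2 coat protein in RNA-MaP buffer (100 mM Tris pH 7.5, 80 mM KCl, 4 mM MgCl2), without ligand or with the indicated ligand. Median apparent KD per design.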

[1] = input ligand: theophylline 20 uM
[2] = input ligand: theophylline 2 mM
[3] = input ligand: tryptophan 2.4 mM

Sequence | apparent KD of MS2 coat protein (input ligand: arginine 13.2 mM) [nM] | apparent KD of MS2 coat protein (input ligand: none) [nM] | apparent KD of MS2 coat protein [1] [nM] | apparent KD of MS2 coat protein [2] [nM] | apparent KD of MS2 coat protein [3] [nM]
AGCGUAUAGACGGAUACCAGCGCCGAUUAACAUGAGGAUCACCCAUGUAGUGUGGGUGGACGCCCUUGGCAGCCGAGUAUAGGUA [#07 Exclusion-TheophyllineB] | 391 | 89.7 | 115 | 360 | 221
AGCUCAUAGAGUGAUACCAGACUACAUGAGGAUCACCCAUGUUACUUUUAAAUAUCAUUUGUCCCUUGGCAGCACAUGAAGAGCA [JR_Nu_ExcTheophyB_Sub017] | 18.3 | – | 18.5 | – | 13.8
AGGCUUCGCAUAGGAAAACUAUGUGAAGCCCGAGGACCGGUACGGCCGCCACUCGUCCUCAACAUGAGGAUCACCCAUGUAAUAA [Mat - Exclusion - Trytophan A - D1] | 24.5 | 15.4 | 41.6 | 24.6 | 28.8
AGUAGUUGACAAAAGUCAGCUACAAUUGAAGGAGCGGGAUCCUUCCCAGGUAGGUCGCAAUAACAUGAGGAUCACCCAUGUCAAA [ArgAS 4 #BothOrNeither #OpenEnded] | 15.9 | 27.7 | 26.6 | 20.4 | 20.3
AGUCACUCGAGGUGAUCUGACGAGUGGCAACGAGGACCGGUACGGCCGCCACUCGAAUAAACAUGAGGAUCACCCAUGUACAAAU [T''-M'-T'-T-MS2 - Design 11] | 54 | – | 216 | 626 | –
AGUCUUAAUGGAAGGAGCGCAGUCAUAACAUGAGGAUCACCCAUGUCGAUGUGAGGGUCAUUGCAGGUAGGUCGCCAUACUAAGA [Same State - Arginine B (Freestyle 4)] | 24.7 | 31 | 25 | 25.3 | 32.6
AGUCUUGAACGAAGGAGCGACGUACAUGAGGAUCACCCAUGUGGAGCGAAAGCUCCGUAACGUCAGGUAGGUCGCGUUCGAGACA [Omei Arginine B SS A v3] | 6.89 | 9.25 | 15.6 | 13.1 | 12.5
AGUUUGGACUCGGCCGCCACUCGUGAUGCUUUGGCACAUGAGGAUCACCCAUGUGGUCGGCCUUAGAGGACCGGGAGUACCAGCC [Edesceso] | 82.5 | – | 297 | 342 | –
AUAACAUGAGGAUCACCCAUGUAAGCAGAUACCAGCUAGGAAACUAGCCCUUGGCAGCUGCAAUCAUGGGUGUUUGCAGCUGCAA [(M1)-(M2)-(T1)-(T2)-(M)'-(T)'_Design2] | 21.2 | 18.1 | 36.9 | 19.9 | 13
AUAAGUAAUGUUUCGUGUAUUAUUACAGAUACCAGACUAUACGUUGUCCCUUGGCAGCUGGAUUACAUGAGGAUCACCCAUGUUG [JR_ExcTheophyA_Sub002] | 16 | – | 19.3 | – | 17.1
AUACAUGAGGAUCACCCAUGUGAUGGCCGGCGAGGACCGGUACGGCCGCCACUCGUGAUCCGUCCUGAAAGCAAAGCUCCCAGCA [Lalazare] | 25.1 | – | 244 | 178 | –
AUACCUAAUGUUACAUUUACCUUAUCAGAUACCAGACUUUACGUUGUCCCUUGGCAGCUGUAUCACAUGAGGAUCACCCAUGUUG [JR_SSTheophyA_Sub010] | 17.1 | – | 19.2 | – | 15.3
AUAUAUACAUGAGGAUCACCCAUGUUAUUACGAGGACCGGUACGGCCGCCACUCGAUAGAGUAGAAGUAAAUUGUAAUUCAUGUU [JR_ExcTryptoA_Sub016] | 13.8 | – | 15.6 | 11.6 | –
AUAUAUACAUGAGGAUCACCCAUGUUAUUUCGAGGACCGGUACGGCCGCCACUCGAUAGAGUGGAAGUAACAUUUGUUAGAUGAU [JR_SSTryptoA_Sub013] | 12.8 | – | 17 | 16.3 | –
AUCCACAGCCGAAGGAGCGCAGUAGGAUGACAUGAGGAUCACCCAUGUGUGUGAUGUGGAUUGCAGGUAGGUCGCGGAGUGGGUU [Exclusion - Arginine B (Freestyle 8)] | 43.9 | 71.7 | 72.5 | 73.6 | 72.6
AUCGUACCUAAUGAUACCAGCAAGUGAUCAUAACAUGAGGAUCACCCAUGUAAUCAGUGAUGCCCUUGGCAGCAUAAUCGUUACA [Same State - Theophylline B (Freestyle 2)] | 94.7 | – | 218 | – | 169
AUCGUACCUAGUGAUACCAGCAAGUGAUCAUAACAUGAGGAUCACCCAUGUAAUCAGUGAUGCCCUUGGCAGCAUAAUCGUUACA [Same State - Theophylline B (Freestyle 1)] | 118 | – | 228 | – | 173
AUCUUUGAUGAUCUGGGAAAACCAGAUCGGCGAGGACCGGUACGGCCGCCACUCGUGUAUAAUAUACAUGAGGAUCACCCAUGUA [#20 Tryptophan A Same State] | 50 | 55.4 | 99 | 91.6 | 25.1
